± gives the standard deviation of the averaged measurements.
Each sequence was assayed on Saccharomyces cerevisiae (assay: protein stability index of tFT-peptide fusion (C-terminal peptide) (PSI (0-1 scale)); higher = more stable (slower turnover)). Settings: genetic background: wild type; temperature: 30 C.
With PGLSTGAVKLLY the protein stability index was 0.692 ± 0.023.
LGDGAVVAEESG gave a protein stability index of 0.642 ± 0.062.
With AGGRGGGLGLWC the protein stability index was 0.724 ± 0.1.
With GDYETPSTRSPM the protein stability index was 0.67 ± 0.023.
Sequence KKKEKTSEEKKK has a protein stability index of 0.701 ± 0.029.
In the case of PADPRSSPPVQQ, the protein stability index is reported as 0.691 ± 0.02.
In the case of PPPPTLPPPLVP, the protein stability index is reported as 0.726 ± 0.12.
Sequence IAGKAIKNMTRR has a protein stability index of 0.676 ± 0.052.
GPHAPPPSFPAP was tested, and the protein stability index was 0.718 ± 0.074.
For TSKHLTQRKESK, the protein stability index was 0.659 ± 0.0082.
With PFRSPSLPYFRL the protein stability index was 0.712 ± 0.018.
For PPHCPLVLPSLS, the protein stability index was 0.67 ± 0.044.
Sequence ALVTLRRVVDLV has a protein stability index of 0.601 ± 0.08.
With TSPQHPWPPAPL the protein stability index was 0.694 ± 0.06.
Work on HSPILQPSLPHP yielded a protein stability index of 0.71 ± 0.022.
RAHSGSTCCGAQ showed a protein stability index of 0.698 ± 0.04.
Sequence PPLRPHHPLYHS has a protein stability index of 0.687 ± 0.011.
In the case of KKNKKKKEKKAK, the protein stability index is reported as 0.625 ± 0.025.
In the case of RLHCEGCDPGSL, the protein stability index is reported as 0.7189 ± 0.0015.
VLSLLPFSPFSP showed a protein stability index of 0.735 ± 0.096.
In the case of LSPGQVLPWGVL, the protein stability index is reported as 0.643 ± 0.069.
Sequence GVVWMSCGGWGG has a protein stability index of 0.764 ± 0.028.
CPLAAGSFSSLS was tested, and the protein stability index was 0.6608 ± 0.0009.
LSSNSTTSATYR showed a protein stability index of 0.722 ± 0.016.
Work on PLRRPFSSPFLL yielded a protein stability index of 0.59 ± 0.067.
In the case of SLLPLSLLSSPF, the protein stability index is reported as 0.664 ± 0.0072.
In the case of WPWLHSVACLYS, the protein stability index is reported as 0.626 ± 0.09.
In the case of SVLRRKDKGKRG, the protein stability index is reported as 0.654 ± 0.014.
In the case of AVCLLRLDRSRA, the protein stability index is reported as 0.665 ± 0.027.
EGGRGGVLMRGV was tested, and the protein stability index was 0.727 ± 0.013.
Sequence MLYENNTAPLFI has a protein stability index of 0.635 ± 0.045.
RSHPRQSGLRTA was tested, and the protein stability index was 0.652 ± 0.039.
With REEREISGNLLV the protein stability index was 0.7899 ± 0.0075.
Work on GHRRLGNRWSVG yielded a protein stability index of 0.671 ± 0.035.
Sequence SRVVTSRLVLSS has a protein stability index of 0.606 ± 0.017.
Work on PPSRFPAPPSCA yielded a protein stability index of 0.705 ± 0.059.
RIMFVGYPLDWL gave a protein stability index of 0.674 ± 0.041.
With ATIRSSQGFKIY the protein stability index was 0.612 ± 0.013.
WGGGGVLEVLLG gave a protein stability index of 0.531 ± 0.008.
PPPTPACPPATL was tested, and the protein stability index was 0.693 ± 0.039.
For SLNLFFYVNPRF, the protein stability index was 0.686 ± 0.06.
Sequence AYFGSCCCLPLG has a protein stability index of 0.69 ± 0.039.
In the case of PSLPLPPPPAHP, the protein stability index is reported as 0.65 ± 0.02.
HATFLPGLLTIS showed a protein stability index of 0.566 ± 0.026.
Work on VNILRVYHVARA yielded a protein stability index of 0.564 ± 0.097.
Work on YLPYRTCSWKYE yielded a protein stability index of 0.56 ± 0.022.
For GGRGWWRGTGSG, the protein stability index was 0.719 ± 0.056.
SCDLRALALLGG gave a protein stability index of 0.707 ± 0.07.
DLLKFGPKVLHL was tested, and the protein stability index was 0.6592 ± 0.0023.
SPPRSPPDFVPF showed a protein stability index of 0.684 ± 0.0088.
In the case of TFSIACIPSSHK, the protein stability index is reported as 0.652 ± 0.025.
In the case of RGRWVDWLSFTF, the protein stability index is reported as 0.7278 ± 0.0022.
In the case of CWRVGRERRGAG, the protein stability index is reported as 0.604 ± 0.013.
Sequence ERRERGGERNTP has a protein stability index of 0.658 ± 0.01.
Sequence REGKGREQGRKK has a protein stability index of 0.616 ± 0.053.
In the case of PPPPRLPLDPPL, the protein stability index is reported as 0.658 ± 0.041.
WGRRGSRGSWGA showed a protein stability index of 0.733 ± 0.028.
LPLPSTYHHISK showed a protein stability index of 0.68 ± 0.063.
Work on PSRSPPPLPAPH yielded a protein stability index of 0.69 ± 0.011.
With EVTEVCTIKVHV the protein stability index was 0.577 ± 0.0097.
GVGSGNMEEEGQ was tested, and the protein stability index was 0.679 ± 0.034.
With SGNSPTRDRLRE the protein stability index was 0.684 ± 0.16.
LCPALLFLLARS was tested, and the protein stability index was 0.5141 ± 0.0033.
CCLSVFSYESLA was tested, and the protein stability index was 0.709 ± 0.016.
In the case of LPAHLLPPSSPS, the protein stability index is reported as 0.741 ± 0.03.
For RQGGTMVRLLGY, the protein stability index was 0.651 ± 0.089.
In the case of LTLPLFPPPCSV, the protein stability index is reported as 0.648 ± 0.018.
With YGVFALFLSSLS the protein stability index was 0.576 ± 0.056.
TLPVPLPSVSHS showed a protein stability index of 0.685 ± 0.0098.
In the case of VAHSPLPLILPI, the protein stability index is reported as 0.629 ± 0.041.
GRRNGLCENPRG was tested, and the protein stability index was 0.657 ± 0.0077.
Sequence CVATTHASHTSP has a protein stability index of 0.694 ± 0.033.
In the case of RVQFYVGSPALR, the protein stability index is reported as 0.69684 ± 0.00031.
Sequence PSPPPLGPLPAL has a protein stability index of 0.667 ± 0.037.
Sequence SVAPRPPFPFAI has a protein stability index of 0.694 ± 0.026.
RRGTEGLGGGVG gave a protein stability index of 0.6265 ± 0.0052.
In the case of PVTTYPPQRHIA, the protein stability index is reported as 0.593 ± 0.03.
With AGLRMALGVGIP the protein stability index was 0.6975 ± 0.0065.
Sequence PCIKHNSSLIGP has a protein stability index of 0.701 ± 0.081.
Work on VGRERGRAACGE yielded a protein stability index of 0.662 ± 0.049.
Sequence SISYSNLPSLFF has a protein stability index of 0.75 ± 0.051.
In the case of GGRSGGWCGCWG, the protein stability index is reported as 0.711 ± 0.032.
WLAGKAGASHRG was tested, and the protein stability index was 0.656 ± 0.0079.
Work on IGFLGYTRSIRN yielded a protein stability index of 0.617 ± 0.096.
KKNHYKAICNRR showed a protein stability index of 0.619 ± 0.0075.
Work on LRGCGSGAGWFL yielded a protein stability index of 0.667 ± 0.028.
GRGLGRVMRGRV gave a protein stability index of 0.6182 ± 0.0059.
SPLHASLPPVSL gave a protein stability index of 0.704 ± 0.025.
TGLLGLVGSQVP gave a protein stability index of 0.67 ± 0.016.
In the case of EFRCRGPWGLEE, the protein stability index is reported as 0.761 ± 0.17.
PPYSLLFHPFPF showed a protein stability index of 0.699 ± 0.018.
For RCCGLWVDGFLL, the protein stability index was 0.743 ± 0.045.
FSGLSPPRPEFV showed a protein stability index of 0.708 ± 0.0089.
Sequence PEPEPAGASQKR has a protein stability index of 0.577 ± 0.0076.
With FLASPHPPGLSP the protein stability index was 0.693 ± 0.033.
APIRRPTCLSEV gave a protein stability index of 0.708 ± 0.043.
Work on FFTFTMSIPRWL yielded a protein stability index of 0.617 ± 0.055.
Sequence TSIDRLLIRYEK has a protein stability index of 0.649 ± 0.12.
FCCTPAPVPPST showed a protein stability index of 0.689 ± 0.016.
With PTLSSRPPPYPR the protein stability index was 0.642 ± 0.048.
Sequence DGAAGTGGAMGF has a protein stability index of 0.669 ± 0.068.
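Further: PSI is a weighted mean of sequencing reads over stability bins, variants kept only with over 10 reads, mCherry proximal and sfGFP distal, peptide attached via GGGS linker.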
